This note sets out measurements from patent publication US10233255B2, “Antibody therapeutics that bind STAT3” (Sorrento Therapeutics, Inc., priority 2016, dated 2019).

For one data set, the system named is MCF-10A cells. Nature of the data set: Accumulation / internalization of antibody conjugate in MCF-10A cells (fluorescence imaging). The class given is cell-based, human. Conditions: 30 minutes pretreatment, FIG. 14.
A further data set relates to U251 cells. The experiment in a line: Accumulation / internalization of antibody conjugate in U251 cells (fluorescence imaging). The note with it: 20 ug/mL, 2 hours at 37° C. The class given is cell-based, human. As to the method:
The same experiments were repeated in the U251 glioblastoma cell line, which also has high levels of STAT3 activity, as described in FIG. 7A. U251 cells were treated with 10 ug/ml of ST3G12-PS antibody conjugate compound 901 in increasing proportions of human serum (1%, 5%, 10% and 20%), for 90 minutes at 37° C. Cells were then fixed, permeabilized and stained with anti-human IgG Alexa546. […] MCF-10A, a normal human mammary epithelial cell line with low levels of STAT3 activity (STAT3 low), was described in FIGS. 7A and 7B. This cell line was also tested according to the above protocol. […] The results of another experiment that was performed to determine accumulation of anti-STAT3 antibody conjugate (e.g. compound 901) are shown in FIG. 7C.
Experiments were carried out to confirm that the ST3G12-PS antibody conjugate (compound 901) was penetrating the cells. Briefly, previously cleaned glass coverslips were coated with collagen for 2 hours at 37° C. 100,000 U251 cells were seeded on the coverslips. Media was removed, and cells were rinsed once with fluorobrite. Next, 20 ug/mL of the specified antibody was added for 2 hours at 37° C. […] In FIG. 10E, red fluorescence indicates the plasma membrane, blue fluorescence indicates the nuclei and green florescence represents the intracellular accumulated ST3G12-PS antibody conjugate compound 901a. […]

The next data set deals with GST protein (Schistosoma japonicum, UniProt P08515). The experiment in a line: Biacore binding to GST protein (specificity control).
Data set [1] has as its target T1, STAT3 (Homo sapiens, UniProt P40763). The experiment in a line: Biacore T200 affinity measurement, captured antibody vs recombinant human STAT3-GST. In kind it is binding. How it is done: Biacore T200 was used to measure the affinity of anti-STAT and anti-STAT-phosphorothioate (PS) antibody (compound 901) to human STAT3. Anti-human Fc antibody (GE, BR-1008-39) was immobilized on a CM5 sensor chip to approximately 1000 RU using standard NHS/EDC coupling methodology. Antibodies (approximately 10 ug/ml) were captured for 60 seconds at a flow rate of 10 ul/min Recombinant human STAT3-GST was serially diluted 2-fold into running buffer (HBS-EP+, starting from […]). All measurements were conducted at a flow rate of 30 ul/min Surfaces were regenerated with 3M MgCl2 (from human antibody kit) for 60 seconds. A 1:1 (Langmuir) binding model was used to fit the data. The results are shown in Table 2, below for anti-STAT3 antibody, ST3G12, and the conjugated anti-STAT3 antibody, ST3G12-PS (compound 901).

In a further data set the target is T2, mouse STAT3 (Mus musculus, UniProt P42227).
T2 construct: endogenous in cells; host or cells: CT-26, MC-38
The experiment in a line: Cell binding assay on fixed, permeabilized mouse cell lines (flow cytometry). Conditions: FIG. 3C. How it is done: (§1) Next, the binding of the candidate anti-STAT3 antibodies to cellular targets was tested in cell binding assays using MDA-MB-435 breast cancer cells and U251 cells. The cells were seeded overnight in a 96 well plate, then fixed with PFA and permeabilized with methanol. Cells were incubated with serial dilutions of the anti-STAT3 antibody candidates ST1A5, ST3G12 and ST5G12 for one hour and 30 minutes. Following incubation, the cells were washed and incubated for 30 minutes with phycoerythrin (PE) conjugated anti-human IgG. Fluorescence was measured on an Intellicyte high-throughput flow cytometry analyzer. […] Bevacizumab (Avastin), a monoclonal antibody that inhibits vascular endothelial growth factor A (VEGF-A) was used as a negative control.
(§2) An isotype control was used as a negative control. The experimental procedure was the same as described above for FIGS. 3A and 3B.

The subject of the next data set is STAT3 phosphorylation. Nature of the data set: IL-6 stimulated STAT3 phosphorylation ELISA on cell lysates. In kind it is cell-based, human. Conditions: overnight antibody, IL-6 10 or 40 ng/ml for 20 minutes. How it is done:
Normal breast epithelial cells (MCF-10A) and ER+ breast cancer cells (MCF-7) were treated with naked ST3G12 antibody and conjugated ST3G12-PS antibody (compound 901) (shown as “OS-STAT3” in FIGS. 8A and 8B) to determine the effect on STAT3 phosphorylation. Cells were pre-treated overnight with antibody, and then stimulated with various concentrations of IL-6 for 20 minutes (10 ng/ml or 40 ng/ml). IL-6 is a STAT3 activator. Cells were then lysed and the protein lysates were subjected to ELISA to determine the phosphorylation status. […] “OS-AIP” refers to an oligosaccharide conjugated bacterial AIP protein, used as a control.

Data set [2] can be described thus: Pharmacokinetics in athymic nude mice. Conditions: administered intravenously.
From the text: (§3) The pharmacokinetic properties of the anti-STAT3 antibody conjugates were examined in athymic nude mice.
The conditions of data set [3]: mouse, in vivo, iv.
From the text: as §3
Data set [4] deals with cellular antigens in U251 cells. The experiment in a line: Cell binding of naked versus PS-conjugated antibody in U251 cells (HTFC). The note with it: permeabilized U251 cells, FIG. 4. Also noted: species or system human. How it is done: Cell binding of naked anti-STAT3 ST3G12 antibodies (ST3G12) versus compound 901 (ST3G12-PS) was assessed in U251 cells. Cells were lifted, permeabilized and incubated with increasing amounts of naked anti-STAT antibodies and PS anti-STAT antibody (compound 901) in PBS+/−2% fetal bovine serum (FBS). After 45 minutes at room temperature, cells were washed twice and incubated with phycoerythrin (PE) conjugated-anti-human IgG for 20 minutes at room temperature in the dark. Cells were then washed and analyzed by high throughput flow cytometry (HTFC). The results are shown in FIG. 4 for assessment of antibody binding to U251 cells.

Data set [5] relates to Human colon cancer HCT116 cells. Nature of the data set: Penetration of 3D tumor spheroids, HCT116 cells. The class given is cell-based. Conditions: alexa fluor 488 labeled, FIG. 18C. How it is done:
Next, experiments were carried out to determine the effect of the STAT3 antibody conjugate on penetration of tumor cells and on tumor cell growth in a three-dimensional (3D) model. 3D in vitro models, such as a tumor spheroid model, have been used in cancer research as an intermediate model between in vitro cancer cell line cultures and in vivo tumor. Human colon cancer HCT116 cells were grown in a 3D tumor spheroid model in a ULA (ultra low attachment) plate, and treated with alexa fluor 488 dye labeled anti-STAT3 monoclonal antibody or alexa fluor labeled anti-STAT3 antibody conjugate (compound 901) for one hour to initiate the uptake. Thereafter, spheres were imaged every 10 min for the next 80 hours with ImageExpress. FIG. 18C are images that show detection of the alexa fluor. […] Next, the effect of the anti-STAT3 antibody conjugate (compound 901) on the growth of 3D tumor spheroids was examined DU145 human prostate cancer cells were seeded in ULA plate. Spheres were allowed to form for 72 hours then treated with the indicated antibodies for additional 5 days. Growth was monitored by ImageXpress HCS confocal microscopy (FIG. 19A). CTG assay was used to determine percent viability in FIG. 19B and percent killing in FIG. 19C. Experiments were done in triplicate wells. Error bars represent one standard deviation.

Data set [6] has as its target T1, STAT3. Nature of the data set: Cell binding assay on fixed, permeabilized human cells (PE anti-human IgG, flow cytometry). More on the design: endogenous in cells; host or cells: MDA-MB-468 (also given as MDA-MB-435), U251, HeLa. How it is done:
as §1, §2

Entries after “also recorded” stand apart in the source; their conditions may differ.

T1 sequence (P40763 whole entry): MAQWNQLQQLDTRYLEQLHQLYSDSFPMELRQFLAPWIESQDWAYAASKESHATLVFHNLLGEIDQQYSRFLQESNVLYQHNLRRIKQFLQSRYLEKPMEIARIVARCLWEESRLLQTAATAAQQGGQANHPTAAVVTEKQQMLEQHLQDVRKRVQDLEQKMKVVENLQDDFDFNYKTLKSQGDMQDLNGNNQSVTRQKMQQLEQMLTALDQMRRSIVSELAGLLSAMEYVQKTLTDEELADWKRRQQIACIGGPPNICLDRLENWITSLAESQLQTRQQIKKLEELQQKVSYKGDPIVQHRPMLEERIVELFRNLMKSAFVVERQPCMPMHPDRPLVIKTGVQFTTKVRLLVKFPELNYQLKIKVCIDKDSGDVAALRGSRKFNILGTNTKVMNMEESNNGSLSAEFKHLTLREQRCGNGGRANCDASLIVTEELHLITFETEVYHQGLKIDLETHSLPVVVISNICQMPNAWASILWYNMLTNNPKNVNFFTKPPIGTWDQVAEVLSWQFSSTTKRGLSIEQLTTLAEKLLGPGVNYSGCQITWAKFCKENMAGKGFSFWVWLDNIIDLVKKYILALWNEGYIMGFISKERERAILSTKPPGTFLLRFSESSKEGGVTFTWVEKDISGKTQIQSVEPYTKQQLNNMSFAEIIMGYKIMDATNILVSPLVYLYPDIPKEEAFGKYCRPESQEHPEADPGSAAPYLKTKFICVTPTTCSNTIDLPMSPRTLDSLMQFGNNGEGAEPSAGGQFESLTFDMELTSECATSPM
T2 sequence (P42227 whole entry): as the sequence (P40763 whole entry) above, with E760D counted along it
GST protein, sequence (P08515 whole entry): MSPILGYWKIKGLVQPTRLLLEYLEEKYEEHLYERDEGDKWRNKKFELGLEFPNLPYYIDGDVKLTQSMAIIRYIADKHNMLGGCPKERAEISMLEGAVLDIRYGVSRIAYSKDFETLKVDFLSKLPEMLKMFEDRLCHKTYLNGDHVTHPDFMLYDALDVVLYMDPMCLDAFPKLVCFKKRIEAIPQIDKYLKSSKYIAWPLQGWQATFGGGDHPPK

As for `O=C1NC(=NS(=O)(=O)c2cccc3ccccc23)S/C1=C\c1ccc(Br)cc1` [PS2, Pitstop2], in the data set with MCF-10A cells (30 uM and 60 uM), the “effect of clathrin inhibitor on ST3G12-PS uptake” value is on record as “inhibited”.

In the case of `CCCCC[C@@H](O)[C@H]1C(=O)O[C@H](C)[C@@H](O)/C=C/C=C/C=C/C=C/C=C(\C)[C@@H](O)C[C@H](O)C[C@H](O)C[C@H](O)C[C@H](O)C[C@H](O)C[C@@H]1O` [filipin], the “effect of caveolin inhibitor on ST3G12-PS uptake” value in the data set with MCF-10A cells (0.5 ug/ml) is listed as “little effect”; in the data set with MCF-10A cells (1.0 ug/ml), “greater effect”.

B1: ST3G12: fully human anti-STAT3 antibody, heavy/light chain variable domains SEQ ID NO. 3/SEQ ID NO. 4 (antibody, V domains shown)
VH: QVQLVQSGAEVKKPGASVKVSCKASGYTFTSYYMHWVRQAPGQGLEWMGIINPSGGSTSYAQKFQGRVTMTRDTSTSTVYMELSSLRSEDTAVYYCARSDYVHSFDIWGQGTMVTVSS
VL: QPVLTQPPSASALLGASIKLTCTLSSEHSTYTVEWYQQRPGRSPQYIMNVKSDGSYNKGDGIPDRFMGSSSGADRYLTFSNLQSDDEAEYHCGESHRIDGQVGVVFGGGTKLTVL
Take B1: the “cell penetration / internalization by microscopy” value in the data set with U251 cells is “no internalization”. The “binding to GST protein” value with GST protein is given as “No binding”. In addition, the Rmax with STAT3 [1] was 174. In the data set with STAT3 [1] (1:1 (Langmuir) binding model), the “Ka” value turned out to be 59700 M⁻¹ s⁻¹ and the “Kd” value is 0.000322 s⁻¹. The “binding to CT-26 mouse cell line” value with mouse STAT3 (CT-26 cells) was “able to recognize mouse STAT3”. Also, the “binding to MC-38 mouse cell line” value with mouse STAT3 (MC-38 cells) was “able to recognize mouse STAT3”. In addition, the “effect on STAT3 phosphorylation in MCF-10A cells” value with STAT3 phosphorylation (FIG. 8A) is listed as “little to no effect”. In addition, the “effect on STAT3 phosphorylation in MCF-7 cells” value in the data set on STAT3 phosphorylation (FIG. 8B) is given as “little to no effect”. In [2], the “CI” value stood at 18.7 mL/day/kg and the “T ½” value is 76.5 h. In data set [3], the “AUC (0-336 hr)” value was 254.6 µg·days/mL, the peak concentration (Cmax) worked out at 79.7 µg/mL and the “Vs s” value was 0.0833 L/kg. Moreover, the “antibody binding to U251 cells, naked versus conjugated” value in data set [4] was “considerably lower”. Further, the “penetration of tumor spheroids” value in data set [5] is recorded as “did not”. For the same molecule, the “binding to HeLa cell line” value with STAT3 [6] (HeLa cells, FIG. 3C) is listed as “strong binding”. Moreover, in the data set with STAT3 [6] (MDA-MB-468 cells, FIG. 3A), the “STAT3 binding in MDA-MB-468 cells” value is reported as “bound STAT3”. Moreover, the “STAT3 binding in U251 cells” value with STAT3 [6] (U251 cells, FIG. 3B / 3C) is “bound STAT3; also recorded: strong binding”.
